# Measurements reported in patent US20220125947A1 (published 2022).
# T1: T cell receptor (TCR) Vγ9 (TRGV9) (human, UniProt Q99603 21-122)
# T1 chain (looked up): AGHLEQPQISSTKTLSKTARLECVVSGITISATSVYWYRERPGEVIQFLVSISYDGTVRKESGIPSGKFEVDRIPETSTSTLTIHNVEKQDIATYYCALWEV
# T2: T cell receptor (TCR) Vγ9 (TRGV9) (human, UniProt Q99603 21-122)
# T2 sequence (looked up): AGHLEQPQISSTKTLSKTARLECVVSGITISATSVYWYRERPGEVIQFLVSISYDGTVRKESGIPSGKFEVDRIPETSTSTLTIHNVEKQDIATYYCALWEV
# Molecular target: T1, T cell receptor (TCR) Vγ9 (TRGV9)
# Test: cell-based or functional assay
# Wherever CD25+ (Vg9+ cells), flow staining is given: test concentration or dose not given here.
# Wherever CD71+ (Vg9+ cells), flow staining is given: test concentration or dose not given here.
# Wherever Granzyme B, Luminex (supernatant) is given: unit not given here.
# Wherever IL6, Luminex (supernatant) is given: unit not given here.
# Wherever TNFα, Luminex (supernatant) is given: unit not given here.
Binder,"CD25+ (Vg9+ cells), flow staining [%]","CD71+ (Vg9+ cells), flow staining [%]","Granzyme B, Luminex (supernatant)","IFNγ, Luminex (supernatant)","IL6, Luminex (supernatant)","TNFα, Luminex (supernatant)","Vg9 T cell %, flow staining [%]"
"VG9B98 (antibody, human IgG1, kappa, V domains shown) VH: EVQLVQSGGDLVKSGGSLRLSCAASGFTFSSYSMYWVRQAPGKGLEWVSSIGSSSTYIFYADSVKGRFTISRDNAMTSLYLQMNRLGAEDSAVYYCARDGELGPFEYWGQGTLVTVSS VL: EIVLTQSPGTLSLSPGERATLSCRASQSVSTSYLAWFQQKPGQAPRLLIFGTSSRATGIPDRFSGSGSGTDFTLTISRLEPEDFAVYHCLQYGRSPLTFGGGTKVDIKR",29.4,90.5,1420,305,294,2010,7.2
"VG9B104 (antibody, human IgG1, kappa, V domains shown) VH: EVQLVESGGGLVKPGGSLRLSCAASGFTFSVYSMNWVRQAPGKGLEWVSSIGSSSSYIFYADSVKGRFTISRDNAKNSLYLQMNSLRAEDTAVYYCGRDHDYGGLDYWGQGTLVTVSS VL: EIVLTQSPGTLSLSPGERATLSCRASQSVSSSYLAWYQQKPGQAPRLLIYGPSNRATDIPDRFSGTGSGTDFTLTISRLEPEDFAVYYCQQYGRSPLTFGGGTKVEIKR",41.4,95.2,5290,2440,1090,4130,5.1
"VG9B69 (antibody, human IgG1, kappa, V domains shown) VH: EVQLVESGGGLVKPGGSLRLSCAASGFTFSSYDINWVRQAPGKGLEWVSSITSSSYYIYYADSVKGRFTISRDNAKNSLYLQMNSLRAEDTAVYYCARDLGVRGVDYYYYGLDVWGQGTMVTVSS VL: not shown",40.4,97.7,3240,2070,591,1100,8.8
"VG9B430 (antibody, human IgG1, kappa, V domains shown) VH: EVQLLESGGGLVKPGGSLRLSCSASGFTFSSYDMNWVRQAPGKGLEWVSSISSSSSYIYYADSVKGRFTISRDNAKNSLYLQMNSLRAEDTAVYHCARDVGVTTDYYYYGMDVWGQGTMVTVSS VL: EIVLTQSPGTLSLSPGDRATLSCRASQSVASSYLAWYQQKPGQSPRLLIYGASSRATGIPDRFSGSGSGTDFTLTISRLEPEDFAVYYCQQYGSSPPYTFGQGTKLEIKR",37.5,96.2,2520,1490,372,125,10.7
"VG9B73 (antibody, human IgG1, kappa, V domains shown) VH: EVQLVQSGGGLVKPGGSLRLSCAASGFTFSNYDMNWVRQAPGKGLEWVSSISSSSSYIYYADSVKGRFTISRDNARNSLFLQMSSLRAEDTAVYYCAREIGVTGTTYYQDYGMDVWGQGTTVTVSS VL: EIVMTQSPGTLSLSPGERATLSCRASQSFSSNYLAWYQQKPGQAPRLLIYGASSRATGIPDRFSGSGSGTDFTLTISRLEPEDFALYYCQQYGSSPPFTFGQGTKVEIKR",30.6,94.1,3370,1050,359,136,13.8
"VG9B133 (antibody, human IgG1, kappa, V domains shown) VH: EVQLVESGGGLVKPGGSLRLSCAAAGFTFSNYDMNWVRQVPGKGLEWVSSISSSSSYIYYADSVKGRFTISRDNAKNSLYLQMNTLRAEDTAVYYCARDLGITGTTMDYYYGMDVWGQGTMVTVSS VL: not shown",21.8,91.4,3480,1170,478,123,5.8
"VG9B428 (antibody, human IgG1, kappa) heavy: not shown light: EIVMTQSPSSVSASVGDRVTITCRASQGINSWLAWYQQKPGNAPKLLIYAASSLQSGVPSRFSGIGSGTDFIFTISSLQPEDFASYYCQQANSFPWTFGQGTKVEIKRTVAAPSVFIFPPSDEQLKSGTASVVCLLNNFYPREAKVQWKVDNALQSGNSQESVTEQDSKDSTYSLSSTLTLSKADYEKHKVYACEVTHQGLSSPVTKSFNRGEC",37,98.1,4120,2000,613,390,5

# Molecular target: T2, T cell receptor (TCR) Vγ9 (TRGV9)
# Test: cell-based or functional assay
Binder,"CD25+ (Vg9+ cells), flow staining [%]","CD71+ (Vg9+ cells), flow staining [%]","Granzyme B, Luminex (supernatant)","IFNγ, Luminex (supernatant)","IL6, Luminex (supernatant)","TNFα, Luminex (supernatant)","Vg9 T cell %, flow staining [%]"
"VG9B195 (antibody, human IgG1, lambda, V domains shown) VH: EVQLVESGGGLVKPGGSLRLSCAASGFTFSPYTMNWVRQAPGKGLEWVSSISSSSSYMYYADSVKGRFTISRDNAKNSLYLQMNSLRAEDTAVYYCARDGDLVGPTYYFDYWGQGTLVTVSS VL: SYELMQPPSVSVSPGQTASITCSGDKLGDKYACWYQQKPGQSPVLVIYQHNKRPSGIPERFSGSNSGKTATLTISGTQAMDEADYYCQAWDSTTVVFGGGTKLTVLG",15.8,86.9,1060,303,166,61,3.7
"VG9B54 (antibody, human IgG1, kappa, V domains shown) VH: EVQLVESGGGLVKPGGSLRLSCAASGFAFSSYSLTWVRQAPGKGLEWVSSISSSSSYIFYADSVKGRFTISRDNAKNSLYLQMNSLRAEDTAVYYCATDGELGPFDYWGQGTTVTVSS VL: EIVMTQSPGTLSLSPGERATLSCRASQSVSSSYLAWFQQKPGQAPRRLIYGASSRATGIPDRFSGSGSGTDFTLTISRLEPEDFAVYYCQQYGRSPLTFGGGTKVEIKR",32.4,93.3,3100,1600,761,6100,10.5
"VG9B121 (antibody, human IgG1, kappa, V domains shown) VH: EVQLVESGGGLVKPGGSLRLSCVASGFTFSDYAMDWVRQAPGKGLDWISSISSTSNYIFYADSVKGRFTISRDNAKNSLYLQMNSLRVEDSAVYYCANSYNWNYGGAFDIWGQGTMVTVSS VL: DIQMTQSPGTLSSSPGERATLSCRASQSVSSSYFAWYQQKPGRAPRLLIYGASSRATGIPDRFSGSGSGTDFTLTISRLEPEDFAVYFCQQYGRSPLTFGGGTKVEIKR",50.9,98.7,1350,429,161,96,16.1
"VG9B80 (antibody, human IgG1, kappa, V domains shown) VH: EVQLVQSGGGLVKSGGSLRLSCAASGFTFSTYSMNWVRQAPGKGLEWVSSISSSSSYIFYADSVKGRIIISRDNAKNSLYLQMNSVRADDTAVYYCAKDGELGVFDYWGQGTLVTVSS VL: EIVLTQSPGTLSLSAGERATLSCRASQSISSSYLAWYQQKPGQAPRVLIYGPSGRATGIPDRFRGSGSGTDFTLTISRLEPEDFAVYYCQQFGRSPLTFGGGTKVEIKR",49.6,98.3,3010,1360,385,4910,5.2
"VG9B140 (antibody, human IgG1, kappa, V domains shown) VH: EVQLVESGGGLVKPGGSLRLSCAGSGFTFRSYDMNWVRQAPGKGLEWVSSISTSSGYIYYADSVKGRFTISRDNAKNSLSLQMNSLRAEDTAVFYCARDRGIAVAGDYYYGMDVWGQGTMVTVSS VL: not shown",20.4,70.6,2160,796,602,3520,3.9
"VG9B46 (antibody, human IgG1, kappa, V domains shown) VH: EVQLVESGGGLVKPGGSLRLSCEASGFTFSINSMNWVRQAPGKGLEWVSSISSTSDYIFNADSVKGRFTISRDNAKNSLYLQMNSLRAEDTAVYYCVRDDVFGAFDIWGQGTMVTVSS VL: EIVLTQSPGTLSLSPGERATLSCRTSQSVSRSYLGWYQQKPGQPPRLLIFGSSSRATGIPDRFSGSGSGTDFTLTISRLEPEDFAVYYCQQYSRSPLTFGGGTKVDIKR",37.9,95.8,3170,1150,375,5260,4.4
"VG9B429 (antibody, human IgG1, kappa) heavy: not shown light: DIQMTQSPSSVSASVGDRVTITCRASQGINSWLAWYQQKPGNAPKLLIYAASSLQSGVPSRFSGIGSGTDFIFTISSLQPEDFASYYCQQANSFPWTFGQGTRLEIKRTVAAPSVFIFPPSDEQLKSGTASVVCLLNNFYPREAKVQWKVDNALQSGNSQESVTEQDSKDSTYSLSSTLTLSKADYEKHKVYACEVTHQGLSSPVTKSFNRGEC",25.8,91.6,2150,1250,816,583,3
"VG9B414 (antibody, human IgG1, kappa) heavy: not shown light: EIVMTQSPSSVSASVGDRVTITCRASQGINSWLAWYQQKPGNAPKLLIYAASSLQSGVPSRFSGIGSGTDFIFTISSLQPEDFASYYCQQANSFPWTFGQGTRLEIKRTVAAPSVFIFPPSDEQLKSGTASVVCLLNNFYPREAKVQWKVDNALQSGNSQESVTEQDSKDSTYSLSSTLTLSKADYEKHKVYACEVTHQGLSSPVTKSFNRGEC",24.8,88.1,1490,476,219,186,4
